Assay results taken from US9163218B2, “Method for increasing the efficiency of inducing pluripotent stem cells” (GUANGZHOU INSTITUTES OF BIOMEDICINE AND HEALTH, CHINESE …, priority 2011, dated 2015).

Test system: OG2 mouse embryonic fibroblasts
Assay: Induction of pluripotent stem cells (reprogramming) from OG2 mouse embryonic fibroblasts; GFP fluorescence clones counted
Type: cell-based
Conditions: for induction of pluripotent stem cells with only SO, KO or Oct4: Jhdm1a and Jhdm1b together, mES medium with 50 μg/ml vitamin C, FIG. 3; for induction of pluripotent stem cells with only SO, KO or Oct4 / efficiency of reprogramming (inducing pluripotent stem cells) mediated by SKO / efficiency of reprogramming (inducing pluripotent stem cells) mediated by SKOM: control pMXs-FLAG empty vector; for efficiency of reprogramming (inducing pluripotent stem cells) mediated by SKO: with Klf4, Sox2, Oct4 (SKO); for efficiency of reprogramming (inducing pluripotent stem cells) mediated by SKO / efficiency of reprogramming (inducing pluripotent stem cells) mediated by SKOM: whether vitamin C present or not; for efficiency of reprogramming (inducing pluripotent stem cells) mediated by SKOM: with Klf4, Sox2, c-Myc, Oct4 (SKOM)

O=C1O[C@H]([C@@H](O)CO)C(O)=C1O [vitamin C, reference compound]
effect of vitamin C on reprogramming by Oct4 with Jhdm1b (Oct4 + Jhdm1b (OB), vitamin C present): achieves more significant effects | effect of vitamin C on improvement of reprogramming efficiency, SKO (SKO plus Jhdm1a or Jhdm1b, vitamin C in inducing medium (50 μg/mL), FIG. 1): the improvement was more significant | effect of vitamin C on improvement of reprogramming efficiency, SKOM (SKOM plus Jhdm1a or Jhdm1b, vitamin C in inducing medium (50 μg/mL), FIG. 2): the improvement was more significant

B1: Jhdm1b: member of the JmjC-domain-containing histone demethylase family, expressed from pMXs-FLAG retroviral vector (SEQ ID NO: 2 / 8) (protein)
chain: MEAEKDSGRRLRAIDRQRYDENEDLSDVEEIVSVRGFSLEEKLRSQLYQGDFVHAMEGKDFNYEYVQREALRVPLVFRDKDGLGIKMPDPDFTVRDVKLLVGSRRLVDVMDVNTQKGTEMSMSQFVRYYETPEAQRDKLYNVISLEFSHTKLEHLVKRPTVVDLVDWVDNMWPQHLKEKQTEATNALAEMKYPKVKKYCLMSVKGCFTDFHIDFGGTSVWYHVFRGGKIFWLIPPTLHNLALYEEWVLSGKQSDIFLGDRVERCQRIELKQGYTFFIPSGWIHAVYTPVDSLVFGGNILHSFNVPMQLRIYEIEDRTRVQPKFRYPFYYEMCWYVLERYVYCVTQRSYLTQEYQRELMLIDAPRKTSVDGFSSDSWLDMEEESCEQQPQEEEEEEEDKEEEGDGADKTPKPPTDDPTSPTSTPPEDQDSTGKKPKAPAIRFLKRTLSNESEESVKSTSMPTDDPKTPTGSPATEVSTKWTHLTEFELKGLKALVEKLESLPENKKCVPEGIEDPQALLEGVKNVLKEHVDDDPTLAITGVPVVSWPKKTAKNRVVGRPKGKLGPASAVKLAANRTTAGARRRRTRCRKCEACLRTECGECHFCKDMKKFGGPGRMKQSCIMRQCIAPVLPHTAVCLVCGEAGKEDTVEEEEGKFNLMLMECSICNEIIHPGCLKIKESEGVVNDELPNCWECPKCNHAGKTGKQKRGPGFKYASNLPGSLLKEQKMNRDNKEGQEPAKRRSECEEAPRRRSDEHPKKVPADGILRRKSDDVHLRRKRKYEKPQELSGRKRASSLQTSPGSSSHLSPRPPLGSSLSPWWRSSLTYFQQQLKPGKEDKLFRKKRRSWKNAEDRLSLANKPLRRFKQEPEDDLPEAPPKTRESDQSRSSSPTAGPSTEGAEGPEEKKKVKMRRKRRLVNKELSKELSKELNHEIQKTESTLAHESQQPIKSEPESENDEPKRPLSHCERPHRFSKGLNGTPRELRHSLGPGLRSPPRVMSRPPPSASPPKCIQMERHVIRPPPISPPPDSLPLDDGAAHVMHREVWMAVFSYLSHRDLCVCMRVCRTWNRWCCDKRLWTRIDLNRCKSITPLMLSGIIRRQPVSLDLSWTNISKKQLSWLINRLPGLRDLVLSGCSWIAVSALCSSSCPLLRTLDVQWVEGLKDAQMRDLLSPPTDNRPGQMDNRSKLRNIVELRLAGLDITDVSLRLIIRHMPLLSKLQLSYCNHINDQSINLLTAVGTTTRDSLTEVNLSDCNKVTDLCLSFFKRCGNICHIDLRYCKQVTKEGCEQFIAEMSVSVQFGQVEEKLLQKLS
modifications: FLAG tag; nucleotide acid sequence of coding regions for kdm2b
induction of pluripotent stem cells with only SO, KO or Oct4: acted together to enable the induction of pluripotent stem cells | completion of reprogramming by combination with Oct4 alone (Oct4 + Jhdm1b (OB), common culture medium without vitamin C): can complete reprogramming in a common culture medium | efficiency of reprogramming (inducing pluripotent stem cells) mediated by SKO (FIG. 1): obviously improved the efficiency of reprogramming | efficiency of reprogramming (inducing pluripotent stem cells) mediated by SKOM (FIG. 2): obviously improved the efficiency of reprogramming

B2: Jhdm1a: member of the JmjC-domain-containing histone demethylase family, expressed from pMXs-FLAG retroviral vector (SEQ ID NO: 1 / 7) (protein)
chain: MEPEEERIRYSQRLRGTMRRRYEDDGISDDEIEGKRTFDLEEKLQTNKYNANFVTFMEGKDFNVEYIQRGGLRDPLIFKNSDGLGIKMPDPDFTVNDVKMCVGSRRMVDVMDVNTQKGIEMTMAQWTRYYETPEEEREKLYNVISLEFSHTRLENMVQRPSTVDFIDWVDNMWPRHLKESQTESTNAILEMQYPKVQKYCLMSVRGCYTDFHVDFGGTSVWYHIHQGGKVFWLIPPTAHNLELYENWLLSGKQGDIFLGDRVSDCQRIELKQGYTFVIPSGWIHAVYTPTDTLVFGGNFLHSFNIPMQLKIYSIEDRTRVPNKFRYPFYYEMCWYVLERYVYCITNRSHLTKDFQKESLSMDMELNELESGNGDEEGVDREARRMNNKRSVLTSPVANGVNLDYDGLGKACRSLPSLKKTLSGDSSSDSTRGSHNGQVWDPQCSPKKDRQVHLTHFELEGLRCLVDKLESLPLHKKCVPTGIEDEDALIADVKILLEELASSDPKLALTGVPIVQWPKRDKLKFPTRPKVRVPTIPITKPHTMKPAPRLTPVRPAAASPIVSGARRRRVRCRKCKACVQGECGVCHYCRDMKKFGGPGRMKQSCVLRQCLAPRLPHSVTCSLCGEVDQNEETQDFEKKLMECCICNEIVHPGCLQMDGEGLLNEELPNCWECPKCYQEDSSDKAQKRKIEESDEEAVQAKVLRPLRSCEEPLTPPPHSPTSMLQLIHDPVSPRGMVTRSSPGAGPSDHHSASRDERFKRRQLLRLQATERTMVREKENNPSGKKELSEVEKAKIRGSYLTVTLQRPTKELHGTSIVPKLQAITASSANLRPNPRVLMQHCPARNPQHGDEEGLGGEEEEEEEEEEDDSAEEGGAARLNGRGSWAQDGDESWMQREVWMSVFRYLSRKELCECMRVCKTWYKWCCDKRLWTKIDLSRCKAIVPQALSGIIKRQPVSLDLSWTNISKKQLTWLVNRLPGLKDLLLAGCSWSAVSALSTSSCPLLRTLDLRWAVGIKDPQIRDLLTPPTDKPGQDNRSKLRNMTDFRLAGLDITDATLRLIIRHMPLLSRLDLSHCSHLTDQSSNLLTAVGSSTRYSLTELNMAGCNKLTDQTLFFLRRIANVTLIDLRGCKQITRKACEHFISDLSINSLYCLSDEKLIQKIS
modifications: FLAG tag; nucleotide acid sequence of coding regions for kdm2a
induction of pluripotent stem cells with only SO, KO or Oct4: acted together to enable the induction of pluripotent stem cells | efficiency of reprogramming (inducing pluripotent stem cells) mediated by SKO (FIG. 1): obviously improved the efficiency of reprogramming | efficiency of reprogramming (inducing pluripotent stem cells) mediated by SKOM (FIG. 2): obviously improved the efficiency of reprogramming
